Results on 133 substances are retold here after the supplement of paper PMC12042874.

± gives the uncertainty stated by the source.

This data set is described as follows: amyloid nucleation score (Sup35N fusion, yeast selection) (log enrichment); library NNK3; higher = more nucleation; inactive = no reads after selection. The gist of the method: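 The nucleation score is a DiMSum log enrichment of output over input reads, centred on the mode score of non-aggregating sequences. Sequences under 100 input reads were excluded, and reads came from Illumina sequencing of plasmid inserts. Psi-negative yeast expressing Sup35N fused to peptides of 20 random codons were induced with 100 μM copper sulfate for 24 hours and grown 7 days at 30°C on medium lacking adenine and uracil. Random libraries had three technical output replicates.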
As for RLMFWRELGLFSKFKLSIQG, the amyloid nucleation score result was “inactive”.
Regarding FLILSNEIMPLFTWANKRLE, the amyloid nucleation score entry was “inactive”.
In turn, PRRSNSFRLPLIHISQYSLK displayed an amyloid nucleation score of 0.939 ± 0.2.
For GVGNKGSTKNLEQVTASVVV, the amyloid nucleation score result is “inactive”.
On to LRSWPVLHSAISTND, for which the amyloid nucleation score result is “inactive”.
The substance NLHTTEIKFSPLLWKISSTW returned an amyloid nucleation score of 0.313 ± 0.34.
Turning to RCAPFNFFPCHIWRYVLTRK, the amyloid nucleation score entry is “inactive”.
On to VNGCIRCCTPVSKYISVDLA, for which the amyloid nucleation score result is “inactive”.
On to DSMVCSHCWLFDEGSYVYGQ, for which the amyloid nucleation score entry was “inactive”.
With MSRMMSLNMECTSGMPESQV, the amyloid nucleation score entry was “inactive”.
With ILGGGSIFKSRQNMIWYTLS, the amyloid nucleation score is 0.207 ± 0.61.
In the case of KHRYAYGRRTNCWASHYLRG, the amyloid nucleation score result is “inactive”.
With LNPNYRNAYLNYRVLFY, the amyloid nucleation score entry is “inactive”.
The value for VPFDGLFWYCRCR was “inactive”; that for GCKRSSGKRFLCRGAPCDEW was “inactive”.
For the substance TDTSAGFM, the amyloid nucleation score result was “inactive”.
The value for CLLTLMREVSCLLYFYHRAW was 1.56 ± 0.091; that for RVEMICFQDYLEYKRE was “inactive”; that for AEARTPIECVC was “inactive”.
The value for VADRVSSK was “inactive”; that for IMMMNLKM was 1.92 ± 0.079; that for DRSDSMYPINMREESREFTF was “inactive”.
On to SARVRAVAMFPPPALT, for which the amyloid nucleation score entry is “inactive”.
Regarding FLDDLTLVHGRSETKKNL, the amyloid nucleation score result is “inactive”.
On to YTVGIVTDWFVTSGNSFYK, for which the amyloid nucleation score entry was “inactive”.
In turn, HNVFVFCNMAVIELQVNDWL came in with an amyloid nucleation score of 3.26 ± 0.063.
Turning to KFFQTSLRTAIRLWKSAISC, the amyloid nucleation score entry is “inactive”.
In the case of FNLNESSGYVKFYLNGNRPL, the amyloid nucleation score entry is “inactive”.
Take LSLAVKVIVKG: the amyloid nucleation score entry was “inactive”.
Substance NWKLYWYNVSCL gave an amyloid nucleation score of 1.65 ± 0.067.
As to IRGSSKTDSKRTWVK, the amyloid nucleation score is -0.364 ± 0.7.
With LVKNITPNAA, the amyloid nucleation score result is “inactive”.
As for QEWKQWLMSWTSRKAFSLKS, the amyloid nucleation score result is “inactive”.
As for SLGLHIWFCTLLAIWTLLLL, the amyloid nucleation score entry was “inactive”.
Consider LQSVMFLPICFLLT, for which the amyloid nucleation score entry is “inactive”.
On to SYAQGH, for which the amyloid nucleation score was determined as 0.901 ± 0.18.
On to GGYRVGFYQY, for which the amyloid nucleation score result was “inactive”.
Regarding SILSPYLV, the amyloid nucleation score entry is “inactive”.
In the case of FGVGMALALCQRH it was “inactive”; in that of HGFFNLWWRARLHLAPLHHH, “inactive”; in that of WYIFFMEVMAGRY, “inactive”.
MILLLSGGCVTESFWG: the amyloid nucleation score result was “inactive”.
For the substance SFSRPCWLYWAGFLSVVYRC, the amyloid nucleation score entry is “inactive”.
YGSDGHHLA: the amyloid nucleation score entry is “inactive”.
With TGHWNSDWFLI, the amyloid nucleation score result is “inactive”.
With TNTFYDHTNFMIVGLVPVRY, the amyloid nucleation score result was “inactive”.
For SDFRVTPLLYE, the amyloid nucleation score result is “inactive”.
Take SFVQLMFLFGT: the amyloid nucleation score is 1.83 ± 0.076.
VYIWRIMTTEIWVRVTWYAG: the amyloid nucleation score result is “inactive”.
In the case of LLSLAYVMRYI, the amyloid nucleation score came to 1.38 ± 0.068.
Substance EYGLNFSLNGYLSH showed an amyloid nucleation score of 0.601 ± 0.32.
In the case of RDYQCLQLYCRSASPIT, the amyloid nucleation score entry is “inactive”.
Take YSFDASTYIYVSGRLFNKSV: the amyloid nucleation score result is “inactive”.
In the case of IYVHNYFISVVIMVYFTMLP, the amyloid nucleation score result is “inactive”.
The value for NRLFTH was “inactive”; that for KASWRMLC was “inactive”.
In turn, WVESESQETHHIAM came in with an amyloid nucleation score of -0.113 ± 1.
The value for FSNGPSAVYYFIYLGLFNKN was 1.48 ± 0.072; that for KLYIALMDKYPGATSMFQPV was 1.18 ± 0.23; that for RLETMGLRNNVVCNSSEALQ was “inactive”.
In the case of FCIECYL it was “inactive”; in that of RSYFC, “inactive”.
In turn, FCRRSGSFVLDMTYWGMYRP displayed an amyloid nucleation score of 0.156 ± 0.32.
With TNYRYSFGISYS, the amyloid nucleation score entry was “inactive”.
HLTHFQQILRFNKAETCVRT: the amyloid nucleation score entry is “inactive”.
As for LSVITVLNKKNRSDIMWIMI, the amyloid nucleation score entry is “inactive”.
DTISGGEWDNEVRPYRILLL: the amyloid nucleation score entry was “inactive”.
Take TVICELRNMRYS: the amyloid nucleation score amounted to 1.81 ± 0.087.
Regarding YHTPCSTSDVARRGRYSRRD, the amyloid nucleation score result is “inactive”.
In the case of HIEVCGTLLYCGDRQISVNN it was 0.49 ± 0.27; in that of KFFQIIRASVF, “inactive”.
As for SVYCSCISFGPTSKILVIMD, the amyloid nucleation score is 2.34 ± 0.088.
Regarding AYSSWALMLGHTMCIYGGFR, the amyloid nucleation score turned out to be 1.55 ± 0.13.
Consider RYDLIVKVVVSGESVSTWCC, for which the amyloid nucleation score entry is “inactive”.
For the substance SARIPSLWNHWRIW, the amyloid nucleation score entry is “inactive”.
As to KWRDIIYCIYSIMIDSCTSR, the amyloid nucleation score entry is “inactive”.
On to TASPCFNSYLKNFVLGLPTT, for which the amyloid nucleation score result was “inactive”.
Regarding VLRKARVVIRSYSMEVRFRS, the amyloid nucleation score result is “inactive”.
For the substance YSESMRGNQ, the amyloid nucleation score result was “inactive”.
VMTVVRKSSSSVVAISWISE returned an amyloid nucleation score of 0.392 ± 0.54.
For the substance GFSGPSLGQIAG, the amyloid nucleation score entry was “inactive”.
Take NVDGVVLDCLSSLDSEWGYV: the amyloid nucleation score result is “inactive”.
LGVMSAVRAIGGFEILIGCV: the amyloid nucleation score result is “inactive”.
CQSSDFTEFVRKVKRPPQAC: the amyloid nucleation score entry is “inactive”.
Turning to HVFNGY, the amyloid nucleation score result was “inactive”.
For the substance GAVLLSGEEL, the amyloid nucleation score stood at 0.871 ± 0.17.
With VGIALASIK, the amyloid nucleation score entry is “inactive”.
For NLCVMPRTTGPLS, the amyloid nucleation score entry was “inactive”.
On to MGLLLFLSANDV, for which the amyloid nucleation score result is “inactive”.
For DCKMRIEICDMGLCTEHRKC, the amyloid nucleation score entry was “inactive”.
In turn, QYFHMTWSVIVYEIGVRPYI came in with an amyloid nucleation score of -0.449 ± 0.8.
Regarding LTSVMIFVLVRIELPNQTLS, the amyloid nucleation score entry was “inactive”.
Take MSVSSCLTPGDGNESHWNSR: the amyloid nucleation score result was “inactive”.
As to DGKGPMVYSGMCCRTFRGLV, the amyloid nucleation score result was “inactive”.
Regarding LCPLMAY, the amyloid nucleation score entry was “inactive”.
In the case of SWRASVYFITWDW it was “inactive”.
On to DKSSSFLVRGLLLHTSRATQ, for which the amyloid nucleation score result was “inactive”.
Consider FRLRGLKLTSNMDDWMLIKE, for which the amyloid nucleation score result was “inactive”.
For RHVNCLAQLSDCKLTIM, the amyloid nucleation score worked out at 0.396 ± 0.38.
LSIYRFSCTNSRCLMDLFI: the amyloid nucleation score entry is “inactive”.
As for SMSAMYDSAIVV, the amyloid nucleation score entry was “inactive”.
As for DRVPSDTRCYKYGLLLLWYQ, the amyloid nucleation score entry is “inactive”.
NPRTRFILNLPVFPSYHEHP: the amyloid nucleation score result was “inactive”.
MDGGFECGNEGICWSTCVLG: the amyloid nucleation score entry is “inactive”.
Regarding RFPDLLQMVRAKAPDPLQQH, the amyloid nucleation score entry was “inactive”.
As for DCLASGMISFRVTMSNRYTI, the amyloid nucleation score came out at 0.241 ± 0.59.
For GPLRVPVMMGCWRRIDRMPW, the amyloid nucleation score result is “inactive”.
KTLTGQFGCSTTALCNDVEC gave an amyloid nucleation score of -0.515 ± 0.75.
In the case of KFILFRVSVKGIRRFQVGR it was 1.47 ± 0.14; in that of REVMWKICFRKINYVGYSGK, “inactive”; in that of DFWKL, “inactive”.
Turning to QAGLSCD, the amyloid nucleation score entry is “inactive”.
Regarding LDNTLDN, the amyloid nucleation score entry was “inactive”.
Substance NWLLRYLYCRTNFGCCYR yielded an amyloid nucleation score of -0.552 ± 0.7.
The value for SNVEYCLYARLYLGCGVCHP was 0.176 ± 0.42.
For the substance YLDFDRMFVQCEFCLTDLDL, the amyloid nucleation score stood at 0.59 ± 0.13.
MLSVPDVVRFWMFKFYKFSW: the amyloid nucleation score entry was “inactive”.
Regarding SSSNLLKPSYFCKGSRGASQ, the amyloid nucleation score entry was “inactive”.
As for WLESHGDHGFNEKDSWWPYF, the amyloid nucleation score entry was “inactive”.
TIYFF showed an amyloid nucleation score of 1.27 ± 0.11.
For the substance SERYADL, the amyloid nucleation score entry is “inactive”.
SVNHKFVSDCIFGRATMEVR returned an amyloid nucleation score of -0.263 ± 0.9.
In the case of RSSKSEGYGFVGVGI it was “inactive”; in that of FMFVVWGYINGFGYLTGVN, “inactive”.
As for LFGCNERCFYFAF, the amyloid nucleation score result was “inactive”.
As for GRLCELITSMY, the amyloid nucleation score result was “inactive”.
The value for FFLTLGYVVGYQRWSYILWR was “inactive”; that for FRNNRRRAVMCSGFMFRFNF was “inactive”.
In the case of GIGCDLFRCADTRWIVLPSM, the amyloid nucleation score entry was “inactive”.
Regarding WLCWQHSDLMNRDCNGLTLG, the amyloid nucleation score result was “inactive”.
In turn, RLSYRVNCLRCPNFWNRHMS had an amyloid nucleation score of 1.93 ± 0.11.
In the case of MCTTRGYMF, the amyloid nucleation score entry was “inactive”.
In the case of PCSSLHCYMWYYVGANCHNL, the amyloid nucleation score result is “inactive”.
